What was measured:
SOX9-NHMG [1] = target: T1, SOX9-NHMG (UniProt Q04887 1-181); experiment: EMSA; homodimer, cooperativity factor ~100 (about 10-fold diminished); EMSA: 10 mM Tris-HCl pH 8.0, 0.1 mg/ml BSA, 50 uM ZnCl2, 100 mM KCl, 10% glycerol, 0.1% Igepal CA630, 2 mM beta-mercaptoethanol, 50 nM DNA, 4 h at 4 C; CD: 50 mM phosphate pH 8.0, 4 h at 4 C; details: protein: recombinant; tags: His6 or His-MBP fusion, removed by TEV; chain copies: 2; label: Cy5 forward strand
SOX9-NHMG [2] = target: T1, SOX9-NHMG; experiment: EMSA; highly cooperative homodimer; cooperativity factor denoted infinite; EMSA: 10 mM Tris-HCl pH 8.0, 0.1 mg/ml BSA, 50 uM ZnCl2, 100 mM KCl, 10% glycerol, 0.1% Igepal CA630, 2 mM beta-mercaptoethanol, 50 nM DNA, 4 h at 4 C; CD: 50 mM phosphate pH 8.0, 4 h at 4 C; details: protein: recombinant; tags: His6 or His-MBP fusion, removed by TEV; chain copies: 2; label: Cy5 forward strand
SOX8-NHMG;SOX10-DHMG = SOX8-NHMG;SOX10-DHMG (;, UniProt Q04886;Q04888 1-175;61-180, |); experiment: EMSA; heterodimer band; EMSA: 10 mM Tris-HCl pH 8.0, 0.1 mg/ml BSA, 50 uM ZnCl2, 100 mM KCl, 10% glycerol, 0.1% Igepal CA630, 2 mM beta-mercaptoethanol, 50 nM DNA, 4 h at 4 C; CD: 50 mM phosphate pH 8.0, 4 h at 4 C; details: protein: recombinant;recombinant, tags: His6 or His-MBP fusion, removed by TEV;His6 or His-MBP fusion, copies: 1;1, label: Cy5 forward strand
Sequence of SOX8-NHMG;SOX10-DHMG (Q04886 1-175, chain 1 of 2): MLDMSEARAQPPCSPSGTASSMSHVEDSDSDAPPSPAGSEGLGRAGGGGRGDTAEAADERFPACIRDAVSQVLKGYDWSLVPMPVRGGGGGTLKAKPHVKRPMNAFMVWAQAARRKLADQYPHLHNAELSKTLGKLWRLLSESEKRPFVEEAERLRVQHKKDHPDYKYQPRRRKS
Sequence of SOX8-NHMG;SOX10-DHMG (Q04888 61-180, chain 2 of 2): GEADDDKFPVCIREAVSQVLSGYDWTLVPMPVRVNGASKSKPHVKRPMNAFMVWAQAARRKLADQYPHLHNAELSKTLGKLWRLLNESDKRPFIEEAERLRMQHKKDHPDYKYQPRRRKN

SOX9-DHMG;SOX8-NHMG = SOX9-DHMG;SOX8-NHMG (;, UniProt Q04887;Q04886 60-181;1-175, |); experiment: as above; details: protein: recombinant;recombinant, tags: His6 or His-MBP fusion, removed by TEV;His6 or His-MBP fusion, copies: 1;1, label: Cy5 forward strand
Sequence of SOX9-DHMG;SOX8-NHMG (Q04887 60-181, chain 1 of 2): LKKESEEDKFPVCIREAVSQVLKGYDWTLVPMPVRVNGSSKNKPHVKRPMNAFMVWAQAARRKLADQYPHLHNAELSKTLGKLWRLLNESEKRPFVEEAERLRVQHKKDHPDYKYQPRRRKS
Sequence of SOX9-DHMG;SOX8-NHMG (Q04886 1-175, chain 2 of 2): as the sequence (Q04886 1-175, chain 1 of 2) above

SOX9-NHMG;SOX10-DHMG = SOX9-NHMG;SOX10-DHMG (;, UniProt Q04887;Q04888 1-181;61-180, |); experiment: as above; details: protein: recombinant;recombinant, tags: His6 or His-MBP fusion, removed by TEV;His6 or His-MBP fusion, copies: 1;1, label: Cy5 forward strand
Sequence of SOX9-NHMG;SOX10-DHMG (Q04887 1-181, chain 1 of 2): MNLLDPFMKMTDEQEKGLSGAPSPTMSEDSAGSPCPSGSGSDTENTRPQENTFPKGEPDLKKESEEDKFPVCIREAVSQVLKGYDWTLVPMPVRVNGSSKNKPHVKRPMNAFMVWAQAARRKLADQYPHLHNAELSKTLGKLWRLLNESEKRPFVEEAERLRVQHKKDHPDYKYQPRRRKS
Sequence of SOX9-NHMG;SOX10-DHMG (Q04887 other isoform, or with tags, fused parts or gaps |, chain 2 of 2): as the sequence (Q04888 61-180, chain 2 of 2) above

SOX8-NHMG;SOX10-HMG = SOX8-NHMG;SOX10-HMG (;, UniProt Q04886;Q04888 1-175;102-180, |); experiment: EMSA; mixed dimer with single DIM; EMSA: 10 mM Tris-HCl pH 8.0, 0.1 mg/ml BSA, 50 uM ZnCl2, 100 mM KCl, 10% glycerol, 0.1% Igepal CA630, 2 mM beta-mercaptoethanol, 50 nM DNA, 4 h at 4 C; CD: 50 mM phosphate pH 8.0, 4 h at 4 C; details: protein: recombinant;recombinant; tags: His6 or His-MBP fusion, removed by TEV;N-terminal His6 (Methods, possibly only this construct); copies: 1;1; label: Cy5 forward strand
Sequence of SOX8-NHMG;SOX10-HMG (Q04886 1-175, chain 1 of 2): as the sequence (Q04886 1-175, chain 1 of 2) above
Sequence of SOX8-NHMG;SOX10-HMG (Q04886 other isoform, or with tags, fused parts or gaps |, chain 2 of 2): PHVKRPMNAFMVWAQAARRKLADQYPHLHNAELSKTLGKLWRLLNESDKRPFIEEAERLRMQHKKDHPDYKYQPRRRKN

SOX8-NHMG;SOX9-HMG = SOX8-NHMG;SOX9-HMG (;, UniProt Q04886;Q04887 1-175;103-181, |); experiment: as above; details: protein: recombinant;recombinant; tags: His6 or His-MBP fusion, removed by TEV;; copies: 1;1; label: Cy5 forward strand
Sequence of SOX8-NHMG;SOX9-HMG (Q04886 1-175, chain 1 of 2): as the sequence (Q04886 1-175, chain 1 of 2) above
Sequence of SOX8-NHMG;SOX9-HMG (Q04886 97-175 S141N, chain 2 of 2): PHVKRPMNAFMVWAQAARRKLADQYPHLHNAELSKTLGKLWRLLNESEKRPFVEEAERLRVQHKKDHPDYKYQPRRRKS

SOX8-NHMG;SOX8-HMG = SOX8-NHMG;SOX8-HMG (;, UniProt Q04886;Q04886 1-175;97-175, |); experiment: as above; details: protein: recombinant;recombinant; tags: His6 or His-MBP fusion, removed by TEV;; copies: 1;1; label: Cy5 forward strand
Sequence of SOX8-NHMG;SOX8-HMG (Q04886 1-175, chain 1 of 2): as the sequence (Q04886 1-175, chain 1 of 2) above
Sequence of SOX8-NHMG;SOX8-HMG (Q04886 97-175, chain 2 of 2): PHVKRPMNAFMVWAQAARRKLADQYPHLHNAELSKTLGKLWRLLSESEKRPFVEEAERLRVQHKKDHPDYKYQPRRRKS

SOX10-DHMG;SOX10-HMG = SOX10-DHMG;SOX10-HMG (;, UniProt Q04888;Q04888 61-180;102-180, |); experiment: as above; details: protein: recombinant;recombinant; tags: His6 or His-MBP fusion, removed by TEV;N-terminal His6 (Methods, possibly only this construct); copies: 1;1; label: Cy5 forward strand
Sequence of SOX10-DHMG;SOX10-HMG (Q04888 61-180, chain 1 of 2): as the sequence (Q04888 61-180, chain 2 of 2) above
Sequence of SOX10-DHMG;SOX10-HMG (Q04888 102-180, chain 2 of 2): as the sequence (Q04886 other isoform, or with tags, fused parts or gaps |, chain 2 of 2) above

SOX10-DHMG;SOX9-HMG = SOX10-DHMG;SOX9-HMG (;, UniProt Q04888;Q04887 61-180;103-181, |); experiment: as above; details: protein: recombinant;recombinant; tags: His6 or His-MBP fusion, removed by TEV;; copies: 1;1; label: Cy5 forward strand
Sequence of SOX10-DHMG;SOX9-HMG (Q04888 61-180, chain 1 of 2): as the sequence (Q04888 61-180, chain 2 of 2) above
Sequence of SOX10-DHMG;SOX9-HMG (Q04888 other isoform, or with tags, fused parts or gaps |, chain 2 of 2): as the sequence (Q04886 97-175 S141N, chain 2 of 2) above

SOX10-DHMG;SOX8-HMG = SOX10-DHMG;SOX8-HMG (;, UniProt Q04888;Q04886 61-180;97-175, |); experiment: as above; details: protein: recombinant;recombinant; tags: His6 or His-MBP fusion, removed by TEV;; copies: 1;1; label: Cy5 forward strand
Sequence of SOX10-DHMG;SOX8-HMG (Q04888 61-180, chain 1 of 2): as the sequence (Q04888 61-180, chain 2 of 2) above
Sequence of SOX10-DHMG;SOX8-HMG (Q04888 other isoform, or with tags, fused parts or gaps |, chain 2 of 2): as the sequence (Q04886 97-175, chain 2 of 2) above

SOX10-DHMG = SOX10-DHMG (UniProt Q04888 61-180); experiment: EMSA; homodimer, as cooperative as SOX9-NHMG; EMSA: 10 mM Tris-HCl pH 8.0, 0.1 mg/ml BSA, 50 uM ZnCl2, 100 mM KCl, 10% glycerol, 0.1% Igepal CA630, 2 mM beta-mercaptoethanol, 50 nM DNA, 4 h at 4 C; CD: 50 mM phosphate pH 8.0, 4 h at 4 C; details: protein: recombinant; tags: His6 or His-MBP fusion, removed by TEV; chain copies: 2; label: Cy5 forward strand
Sequence of SOX10-DHMG (Q04888 61-180): as the sequence (Q04888 61-180, chain 2 of 2) above

SOX8-NHMG = SOX8-NHMG (UniProt Q04886 1-175); experiment: as above; details: protein: recombinant; tags: His6 or His-MBP fusion, removed by TEV; chain copies: 2; label: Cy5 forward strand
Sequence of SOX8-NHMG (Q04886 1-175): as the sequence (Q04886 1-175, chain 1 of 2) above

SOX9-NHMG;SOX8-HMG = SOX9-NHMG;SOX8-HMG (;, UniProt Q04887;Q04886 1-181;97-175, |); experiment: EMSA; heterodimer more prominent than SOX9-NHMG homodimer; EMSA: 10 mM Tris-HCl pH 8.0, 0.1 mg/ml BSA, 50 uM ZnCl2, 100 mM KCl, 10% glycerol, 0.1% Igepal CA630, 2 mM beta-mercaptoethanol, 50 nM DNA, 4 h at 4 C; CD: 50 mM phosphate pH 8.0, 4 h at 4 C; details: protein: recombinant;recombinant; tags: His6 or His-MBP fusion, removed by TEV;; copies: 1;1; label: Cy5 forward strand
Sequence of SOX9-NHMG;SOX8-HMG (Q04887 1-181, chain 1 of 2): as the sequence (Q04887 1-181, chain 1 of 2) above
Sequence of SOX9-NHMG;SOX8-HMG (Q04887 103-181 N147S, chain 2 of 2): as the sequence (Q04886 97-175, chain 2 of 2) above

SOX9-NHMG;SOX10-HMG = SOX9-NHMG;SOX10-HMG (;, UniProt Q04887;Q04888 1-181;102-180, |); experiment: as above; details: protein: recombinant;recombinant; tags: His6 or His-MBP fusion, removed by TEV;N-terminal His6 (Methods, possibly only this construct); copies: 1;1; label: Cy5 forward strand
Sequence of SOX9-NHMG;SOX10-HMG (Q04887 1-181, chain 1 of 2): as the sequence (Q04887 1-181, chain 1 of 2) above
Sequence of SOX9-NHMG;SOX10-HMG (Q04887 other isoform, or with tags, fused parts or gaps |, chain 2 of 2): as the sequence (Q04886 other isoform, or with tags, fused parts or gaps |, chain 2 of 2) above

SOX9-NHMG;SOX9-HMG = SOX9-NHMG;SOX9-HMG (;, UniProt Q04887;Q04887 1-181;103-181, |); experiment: EMSA; mixed dimer more prominent than SOX9-NHMG homodimer; EMSA: 10 mM Tris-HCl pH 8.0, 0.1 mg/ml BSA, 50 uM ZnCl2, 100 mM KCl, 10% glycerol, 0.1% Igepal CA630, 2 mM beta-mercaptoethanol, 50 nM DNA, 4 h at 4 C; CD: 50 mM phosphate pH 8.0, 4 h at 4 C; details: protein: recombinant;recombinant; tags: His6 or His-MBP fusion, removed by TEV;; copies: 1;1; label: Cy5 forward strand
Sequence of SOX9-NHMG;SOX9-HMG (Q04887 1-181, chain 1 of 2): as the sequence (Q04887 1-181, chain 1 of 2) above
Sequence of SOX9-NHMG;SOX9-HMG (Q04887 103-181, chain 2 of 2): as the sequence (Q04886 97-175 S141N, chain 2 of 2) above

SOX9-NHMG [3] = target: T1, SOX9-NHMG; experiment: EMSA; highly cooperative homodimer; EMSA: 10 mM Tris-HCl pH 8.0, 0.1 mg/ml BSA, 50 uM ZnCl2, 100 mM KCl, 10% glycerol, 0.1% Igepal CA630, 2 mM beta-mercaptoethanol, 50 nM DNA, 4 h at 4 C; CD: 50 mM phosphate pH 8.0, 4 h at 4 C; details: protein: recombinant; tags: His6 or His-MBP fusion, removed by TEV; chain copies: 2; label: Cy5 forward strand

Measured: binding result

T1 sequence (Q04887 1-181): as the sequence (Q04887 1-181, chain 1 of 2) above

B1: 1 bp spacer SOX dimer probe (dsDNA)
DNA 1: CCGCCGAACAATGTCATTGTTGCCGCC
DNA 2: GGCGGCAACAATGACATTGTTCGGCGG
binds: SOX9-NHMG [1]

B2: 2 bp spacer SOX dimer probe (dsDNA)
DNA 1: CGCCGAAAACAAAGGCCTTTGTTTTGCCGC
DNA 2: GCGGCAAAACAAAGGCCTTTGTTTTCGGCG
binds: SOX9-NHMG [1]

B3: 5 bp spacer SOX dimer probe (dsDNA)
DNA 1: GCCGAAAACAAAGGATACCTTTGTTTTGCC
DNA 2: GGCAAAACAAAGGTATCCTTTGTTTTCGGC
binds: SOX9-NHMG [2]

B4: 4 bp spacer SOX dimer probe (dsDNA)
DNA 1: GCCGAAAACAAAGGAACCTTTGTTTTGCCG
DNA 2: CGGCAAAACAAAGGTTCCTTTGTTTTCGGC
not listed: SOX9-NHMG [1] | SOX9-NHMG [3]
binds: all other assays above

B5: 3 bp spacer SOX dimer probe (dsDNA)
DNA 1: CGCCGAAAACAAAGGACCTTTGTTTTGCCG
DNA 2: CGGCAAAACAAAGGTCCTTTGTTTTCGGCG
binds: SOX9-NHMG [3]

B6: 0 bp spacer SOX dimer probe (dsDNA)
DNA 1: CCGCCGTAACAATGCATTGTTGCCGCC
DNA 2: GGCGGCAACAATGCATTGTTACGGCGG
binds: SOX9-NHMG [1]

B7: 6 bp spacer SOX dimer probe (dsDNA)
DNA 1: CCGAAAACAAAGGATTACCTTTGTTTTGCC
DNA 2: GGCAAAACAAAGGTAATCCTTTGTTTTCGG
binds: SOX9-NHMG [1]
